Test results taken from PMC12341890, “Insights into plastocyanin–cytochrome b6f complex formation: The role of plastocyanin phosphorylation” (Plant Physiology, 2025).
Residue numbers refer to the chain shown, from its start. In names and notes the source's numbering stands. Blank lines part the entries; values can stand above or below the binder they belong to.

Legend:
[1] = target: cytochrome f (Cytf, PetA), His-tagged, in the isolated cytochrome b6f complex (C. reinhardtii) (UniProt P23577)
[2] = target: T1, cytochrome f (Cytf, PetA), His-tagged, in the isolated cytochrome b6f complex (C. reinhardtii, UniProt P23577 32-317); experiment: cross-linking; PC (100 µM) preactivated with 5 mM EDC and 10 mM NHS, pH 6.5 (MOPS), 20 min at room temperature; 5 mM ferricyanide added and cross-linker removed; added to isolated Cytb6f (2.7 µM) pre-reduced with 5 mM ascorbate; HEPES 30 mM pH 7.5, MgCl2, tPCCαM; 45 min at room temperature; read by SDS-PAGE (Coomassie, anti-Cytf blot) and by trypsin digestion with LC-MS/MS (MaxQuant and xiSEARCH); conditions: both partners purified
T1 construct: cytochrome f (PetA) of C. reinhardtii, UniProt P23577; numbers count on: the mature protein (Y32 of P23577 = Y1); Stood in every assay as a subunit of the whole isolated Cytb6f complex, not as an isolated protein; Carries heme f; also called Cytb6f (as the subunit cross-linked); source: C. reinhardtii strain expressing His-tagged PetA; Cytb6f complex purified (tPCCαM solubilisation, NiNTA, …)
T1 sequence (P23577 32-317, one chain of several): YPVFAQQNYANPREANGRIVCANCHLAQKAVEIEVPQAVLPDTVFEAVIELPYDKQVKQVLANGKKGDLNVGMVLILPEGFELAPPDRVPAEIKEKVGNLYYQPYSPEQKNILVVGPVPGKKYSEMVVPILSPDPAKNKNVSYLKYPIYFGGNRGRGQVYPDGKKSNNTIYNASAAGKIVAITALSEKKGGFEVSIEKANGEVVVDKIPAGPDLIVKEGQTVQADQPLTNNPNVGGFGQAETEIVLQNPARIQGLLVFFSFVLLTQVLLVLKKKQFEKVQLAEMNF

cytochrome f (Cytf, PetA), His-tagged, in the isolated cytochrome b6f complex (C. reinhardtii), sequence (P23577 32-317, one chain of several): as above

half-time of Cytf oxidation in the light (absorbance at 554 nm), isolated Cytb6f and PSI, 1 to 3 µM PC, 5 µM FDX [1]: 120 ms
B1: plastocyanin (PC) S49D, recombinant phosphomimetic variant (natural protein)
chain: DATVKLGADSGALEFVPKTLTIKSGETVNFVNNAGFPHNIVFDEDAIPDGVNADAISRDDYLNAPGETYSVKLTAAGEYGYYCEPHQGAGMVGKIIVQ

binding result [2]: binds
B2: plastocyanin (PC) S49K, recombinant (natural protein, C. reinhardtii)
chain: B1 chain with D49K
notes: plastocyanin of C. reinhardtii, UniProt P18068, with a point mutation S49K that adds a trypsin site; numbers count on: the mature protein (D48 of P18068 = D1); S49 is S96 in P18068 by the printed offset; Made from the WT Pet17b-PETE plasmid; the methods list codons only for S-to-A, S-to-E and S-to-D; also called mutated S49K PC; source: E. coli, recombinant (as the wild type PC)
